The text below walks through data of patent US20080207488A1, “Method for Detecting Peptides Comprising a Cross-B Structure” (priority 2005, published 2008).

The target of assay [1] is tissue-type plasminogen activator (tPA) (human) (UniProt P00750). The assay can be described thus: cell-based or functional assay.
The target in assay [2] is human coagulation factor VIII isolated from healthy volunteers (Aafact) (human) (UniProt P00451). The assay can be described thus: ELISA, therapeutic coated, tPA concentration series, one-site binding fit. On the technique in general: ELISA stands for enzyme-linked immunosorbent assay.

pKd: −log10 of the molar value.

A word on the pKd: it is −log10 of the Kd, conventionally taken in molar units. The low end stands for a large Kd, the high end for a small Kd.

Chain of human coagulation factor VIII isolated from healthy volunteers (Aafact) (human) (P00451 20-2351): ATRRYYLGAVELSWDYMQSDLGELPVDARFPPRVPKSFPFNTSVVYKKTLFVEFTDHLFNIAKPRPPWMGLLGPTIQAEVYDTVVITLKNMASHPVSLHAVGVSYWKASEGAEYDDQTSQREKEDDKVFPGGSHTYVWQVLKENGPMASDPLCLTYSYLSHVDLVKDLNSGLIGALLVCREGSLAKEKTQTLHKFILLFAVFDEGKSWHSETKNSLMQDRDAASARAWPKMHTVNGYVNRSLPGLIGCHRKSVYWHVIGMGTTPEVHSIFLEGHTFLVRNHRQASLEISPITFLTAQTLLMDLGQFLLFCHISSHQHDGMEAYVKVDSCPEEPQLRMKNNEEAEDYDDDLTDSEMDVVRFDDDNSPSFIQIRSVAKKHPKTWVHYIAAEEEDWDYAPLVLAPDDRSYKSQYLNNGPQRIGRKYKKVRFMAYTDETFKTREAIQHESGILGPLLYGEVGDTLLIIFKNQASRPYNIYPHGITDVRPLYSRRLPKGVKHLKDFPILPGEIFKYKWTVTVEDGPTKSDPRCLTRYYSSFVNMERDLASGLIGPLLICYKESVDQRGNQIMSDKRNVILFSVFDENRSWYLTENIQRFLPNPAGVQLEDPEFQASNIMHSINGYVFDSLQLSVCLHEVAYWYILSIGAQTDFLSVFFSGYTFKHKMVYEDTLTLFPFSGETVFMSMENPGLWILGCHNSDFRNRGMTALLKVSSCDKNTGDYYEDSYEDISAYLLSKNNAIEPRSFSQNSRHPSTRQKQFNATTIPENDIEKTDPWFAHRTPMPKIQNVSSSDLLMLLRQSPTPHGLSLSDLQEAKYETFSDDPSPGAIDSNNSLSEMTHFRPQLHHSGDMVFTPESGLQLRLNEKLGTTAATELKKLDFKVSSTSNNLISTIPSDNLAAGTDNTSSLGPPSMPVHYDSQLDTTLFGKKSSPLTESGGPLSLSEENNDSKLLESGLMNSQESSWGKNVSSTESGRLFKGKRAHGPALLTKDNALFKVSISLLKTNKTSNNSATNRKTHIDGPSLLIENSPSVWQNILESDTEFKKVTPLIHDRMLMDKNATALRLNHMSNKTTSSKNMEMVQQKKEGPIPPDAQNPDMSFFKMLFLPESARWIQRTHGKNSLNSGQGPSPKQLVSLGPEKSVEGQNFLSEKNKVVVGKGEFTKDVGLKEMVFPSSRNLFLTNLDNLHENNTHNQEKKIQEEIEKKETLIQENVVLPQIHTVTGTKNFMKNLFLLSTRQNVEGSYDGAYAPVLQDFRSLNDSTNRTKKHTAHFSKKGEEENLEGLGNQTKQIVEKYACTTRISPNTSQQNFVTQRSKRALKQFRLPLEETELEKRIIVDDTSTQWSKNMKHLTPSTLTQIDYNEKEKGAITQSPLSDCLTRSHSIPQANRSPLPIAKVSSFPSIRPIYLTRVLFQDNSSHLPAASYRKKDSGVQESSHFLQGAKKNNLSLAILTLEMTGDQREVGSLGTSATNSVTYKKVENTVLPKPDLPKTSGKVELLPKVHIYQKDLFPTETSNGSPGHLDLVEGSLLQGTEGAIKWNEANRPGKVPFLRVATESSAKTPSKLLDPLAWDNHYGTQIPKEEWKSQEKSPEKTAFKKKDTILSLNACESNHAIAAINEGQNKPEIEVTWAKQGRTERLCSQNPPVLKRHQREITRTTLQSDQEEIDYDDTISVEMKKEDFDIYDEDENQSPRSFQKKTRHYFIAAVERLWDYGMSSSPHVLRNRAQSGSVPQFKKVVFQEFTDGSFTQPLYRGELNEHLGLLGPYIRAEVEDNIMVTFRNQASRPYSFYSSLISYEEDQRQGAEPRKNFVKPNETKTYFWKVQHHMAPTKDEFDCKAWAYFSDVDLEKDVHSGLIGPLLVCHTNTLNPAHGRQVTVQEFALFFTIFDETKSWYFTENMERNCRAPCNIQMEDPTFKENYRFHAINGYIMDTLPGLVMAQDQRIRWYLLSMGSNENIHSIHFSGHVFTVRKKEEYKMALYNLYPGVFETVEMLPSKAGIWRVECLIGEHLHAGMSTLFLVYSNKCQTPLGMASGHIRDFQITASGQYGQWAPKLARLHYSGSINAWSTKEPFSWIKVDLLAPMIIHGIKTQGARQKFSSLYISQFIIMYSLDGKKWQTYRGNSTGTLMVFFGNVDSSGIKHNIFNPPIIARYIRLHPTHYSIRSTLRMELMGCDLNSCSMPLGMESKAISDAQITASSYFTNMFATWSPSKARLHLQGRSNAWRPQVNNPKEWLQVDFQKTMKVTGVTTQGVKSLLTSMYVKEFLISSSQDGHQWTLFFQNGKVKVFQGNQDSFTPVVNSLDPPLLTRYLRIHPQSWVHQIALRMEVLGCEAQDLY

Take “human glucagon (Glucagen) (from UniProt P01275 53-81) (peptide)”: in assay [1], the tPA activation, Max. Activation (%) was 11.2%.

Consider “human coagulation factor VIII isolated from healthy volunteers (Aafact) (from UniProt P00451 20-2351)”, for which the tPA activation, Max. Activation (%) in assay [1] came to 4.22%.

With “rapid acting human insulin analogue (NovoRapid Flexpen) (from UniProt P01308 90-110; P01308 25-54) (ligand)”, the tPA activation, Max. Activation (%) in assay [1] is 70.9%.

For the substance “Epoietin Alfa (from UniProt P01588 28-192) (ligand)”, in assay [1], the tPA activation, Max. Activation (%) turned out to be 0%.

“tissue-type plasminogen activator (tPA) (from UniProt P00750 36-562) (enzyme)”: in assay [2], the Bmax (OD450 nm) is 0.54 OD450 nm and the pKd is 6.64.

“human-murine chimeric monoclonal antibody (Remicade-infliximab)” showed a tPA activation, Max. Activation (%) in assay [1] of 0%.

With Etanercept (Enbrel) (Fc fusion), in assay [1], the tPA activation, Max. Activation (%) stood at 0%.
